Assay: yeast display, Sf9 membrane polyspecificity reagent, FACS + sequencing; frameworks hold sequencing errors
Method in brief: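 Polyreactivity labels are assigned by the sorting gate from which each nanobody was recovered. The gates were low and high (top ~1%), set on anti-HA fluorescence for expression and streptavidin fluorescence for reagent binding. Before sorting, galactose-induced (36–48 hours) yeast display cells were stained for 1 hour at 4 °C with 10% biotinylated, detergent-solubilized Sf9 membrane reagent.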

Row | Sequence | polyreactivity (PSR sort gate)
1 | QVQLVESGGGLVQAGGSLRLSCAASGFTFAWYTMGWYRQAPGKERELVAAITDSGDSTYYADSVKGRFTISRDNAKNTVYLQMNSLKPEDTAVYYCATRTWYWDIWITEYDYWGQGPQVTVSS | low polyreactivity
2 | QVQLVESGGGLVQAGGSLRLSCAASGFTFAWYTMGWYRQEPGKESELVAAISWSGGSTYYADSVKGRFTISPDNANKTVYLQMNILKPEDTAVYYCAVTTGLTRYEYWGQGTQVTVSS | high polyreactivity
3 | QVQLVESGGGLVQAGGSLRLSCAASGFTFAYNAMGWYRPAPGKERELVAAISGRGVSTYYADSVKGRFTISRDNAKNTVYLQMNSLKPEDTAVYYCAKRYRYWTTERYDYWGQGTQVTVSS | high polyreactivity
4 | QVQLVESGGGLVQAGGSLRLSCAASGFTFAYNAMGWYRQAPGKERELVAAISSGGTRTYYADSVKGRFTISRDNAKYTVYLQLNSLNPEDTAVYYCASERVGWSGYRGDYLGQGTQVTVSS | high polyreactivity
5 | QVQLVESGGGLVQAGGSLRLSCAASGFTFAYNAMGWYRQAPGKERELVAAISWSGGTTYYADSVKGRFTISRDNAKNTVYLQMNSLKPEDTAVYYCAKRGIGYATSWRGSDYWGQGTQVTVSS | high polyreactivity
6 | QVQLVESGGGLVQAGGSLRLSCAASGFTFAYYAMGWDRQAPGKERELVAAINWSGTRTSYADSVKGRFTISRDNAKNTVYLQMNSLKPEDTAVYYCAADSSLRYDYWGQGTQVTVSS | high polyreactivity
7 | QVQLVESGGGLVQAGGSLRLSCAASGFTFAYYAMGWYRQAPGKEWELVAAISRGGTSTYYADSVKGRFTISRDKAKNTVYLQMNTLKPEDTAVNYCNAGKVGYSLYDYCGQGTQVTVSS | high polyreactivity
8 | QVQLVESGGGLVQAGGSLRLSCAASGFTFCRYAMGWYRQAPGKEREFVAGISSSGGSTYYADSVKGRFTISRDNAKNTVYLQMNSLKPEVTAVYYCNKARYFTGQRYDYWGQGTQVTVSS | high polyreactivity
9 | QVQLVESGGGLVQAGGSLRLSCAASGFTFDANAMGWYRQAPGKERELVAAITRVGSTFYADSVKGRFTISRDNAKNTVYLQMNSLKPEDTAVYYCNAARDHVSGYDYWGQGTQVTVSS | low polyreactivity
10 | QVQLVESGGGLVQAGGSLRLSCAASGFTFDAYTMGWYRQAPGKERELVAAINWSGDTTYYADSVKGRFTISRDNAKNTVYLQMNSLKPEDTAVYYCAAVWWIYGVWFDYWGQGTQVTVSS | high polyreactivity
11 | QVQLVESGGGLVQAGGSLRLSCAASGFTFDENAMGWYRQAPGINYSGASTYYADSVKGRFTISRDNAKNTVYLQMNSVKPEDTAVYYCAAEVVAQMNYCGQGTQVTVSS | low polyreactivity
12 | QVQLVESGGGLVQAGGSLRLSCAASGFTFDENAMGWYRQAPGINYSGASTYYADSVKGRFTISRDNAQNSVYLQMNSLKPEDTAVYYCAAEVVAQMNYWGQGTQVTVSS | low polyreactivity
13 | QVQLVESGGGLVQAGGSLRLSCAASGFTFDENAMGWYRQAPGINYSGASTYYAVSVKGRFTIARDNAKNTVYLQMNSLKPEDTAVYYCAAEVLAQMNYWGQGTQVTVSS | low polyreactivity
14 | QVQLVESGGGLVQAGGSLRLSCAASGFTFDFYAMGWYRQAPGKDRELVAAISRSGGRTYYADSVKGRFTISRDNAKNTVYLQMNSLKPEDTAVYYCAAVDIIPVRMEYWGQGTQVTVSS | high polyreactivity
15 | QVQLVESGGGLVQAGGSLRLSCAASGFTFDFYAMGWYRQAPGKERELVAAISKNDGTTYYADSVKGRFTISRDNAKNTVYLQMNSLKPEDTAVYYCAADVELWVFRGQQYDYWGQGTQVTVSS | low polyreactivity
16 | QVQLVESGGGLVQAGGSLRLSCAASGFTFDGYGMGWYRQAPGKERELVAVITSGGSTKYADSVKGRFTISRDNAKNTVYLQMNSLKPEDTAVYYCAADNRIRGVAFDYWGQGTKVTVSS | low polyreactivity
17 | QVQLVESGGGLVQAGGSLRLSCAASGFTFDKNAMGWYRPAPGKERELVAAINIGSTYYADSVKGRFTISRDNAKNTVYLQMNRLKPEDTAVYYCAKEVPSGYWVNYYYWGQGTQVTVSS | low polyreactivity
18 | QVQLVESGGGLVQAGGSLRLSCAASGFTFDKYAMGRYRQAPGKERDLDAGITRSGSTYYADSVKGRFTISRDNAKNTVYLQMNSLKPEDTAVYYCKARPRGSYNRPNYPRYYYCGQGTQVTVSS | high polyreactivity
19 | QVQLVESGGGLVQAGGSLRLSCAASGFTFDNYAMGWYRQAPGKERELVAAINWSGGRTYYADSVKGRFTISRDNAKNTVYLQMNSLKPEDTAVYYCAVPGYVRMDYWGQGTQVTVSS | high polyreactivity
20 | QVQLVESGGGLVQAGGSLRLSCAASGFTFDNYAMGWYRQAPGKERELVAAISSGGGRTYYADSVKGRFTISRDNAKNTVYLLMNSLKPEDTAVYYCAAVTLYKRYDYWGQGTQVTVSS | high polyreactivity
21 | QVQLVESGGGLVQAGGSLRLSCAASGFTFDNYVMGWYRQAPGKERELVAAISKSGTSTYYADSVKGRFTISRDNAKNTVYLQMNSLKPEDTAVYYCAAALPGYGDYYYWGQGTQVTVSS | high polyreactivity

Row | Sequence | polyreactivity (PSR sort gate)
22 | QVQLVESGGGLVQAGGSLRLSCAASGFTFDSNAMGRYRQAPGKERELVAANSTGGSTYYADSVKGRFTISRDNAKNTVYLQMNSLKPEDTAVYYCARDPPYPDTWYGYWGQGTQVTVSS | low polyreactivity
23 | QVQLVESGGGLVQAGGSLRLSCAASGFTFDSYAMGWYRQAPGKERELVAAISYRGGTTYYADSVKGRFTISRDNAKNTVYLQMNSLKPEDTAVYYCATPYKYVTGEDYWGQGTQVTVSS | high polyreactivity
24 | QVQLVESGGGLVQAGGSLRLSCAASGFTFDTNAMGWYRLAPGKERELVAAISRIGGRPYADSVKGRFTISRDNAKNTVYLQMNSLKPEDTAVYYGAADTTGYPYGYDSWGQGTQVTVSS | low polyreactivity
25 | QVQLVESGGGLVQAGGSLRLSCAASGFTFDWYAMGWYTQAPGKERELVAAITTSGGTTYYADSVKGRFTISRDNSKNNVYLKMISLKPEDPAVYFCAADYYYWYPVEKYDYCGQGTQVTVSS | low polyreactivity
26 | QVQLVESGGGLVQAGGSLRLSCAASGFTFDYNAMGWSRQAPGKERELVAAISYSDDSTYYADSVKGRFTISRDNAKNTVYLQMNSLKPEETAVYYCAAYFGAYGYDYWGQGSQVTVSS | low polyreactivity
27 | QVQLVESGGGLVQAGGSLRLSCAASGFTFDYNAMGWYRQAPGKERELVAAISASGGSTYYADSVKGRFTISRDTAKNTVYLQMNSLKPEDTAVYYCAAKRFSPQHRYDHWGQGTQVTVSS | high polyreactivity
28 | QVQLVESGGGLVQAGGSLRLSCAASGFTFDYNAMGWYRQAPGKERELVAAISASGGSTYYADSVKGRYTISRDTAKNTVYLQMNSLKPEYTAVYYCAAKRFSPQHRYDHWGQGTQVTVSS | high polyreactivity
29 | QVQLVESGGGLVQAGGSLRLSCAASGFTFDYNAMGWYRQAPGKERELVAAISNTGDSTYYADSVKGRFTISRDNAKNTVYLQMNSLKPEDTAVYYCAADSLFYDYWEYDYWGQGTQVTVSS | low polyreactivity
30 | QVQLVESGGGLVQAGGSLRLSCAASGFTFDYYAMGWYRQAPGKERELVAAINWSGAITYYADSVKGRFTISRDNAKNTVYLQMNSLKPEDTAVYYCAARWGKFYGRFYWGMDYWGQGTQVTVSS | high polyreactivity
31 | QVQLVESGGGLVQAGGSLRLSCAASGFTFDYYAMGWYRQAPGKERELVAAITSGSITYYADSVKGRFTISRDNAKNTVYLQMNSLKPEDTAVYSCAAVGLVRYGYWGQGTQVTVSS | high polyreactivity
32 | QVQLVESGGGLVQAGGSLRLSCAASGFTFDYYTMGWYRQAPGKEREFVAAITWNGGTTNYADSVKGRCTISRDNAKNTVYLQMNSLKPEDTALYYCADTAYWYFSNDSGRSYDYWGQGTQVTVSS | low polyreactivity
33 | QVQLVESGGGLVQAGGSLRLSCAASGFTFEDNTMGGYRQAPGKERELVAAITWGGVSTYYADSVKGRFTISRDNAKKTVYLQMNSLKPEDTAVYYCARDYDVYTVFLMDYWGQGTQVTVSS | low polyreactivity
34 | QVQLVESGGGLVQAGGSLRLSCAASGFTFEKYAMGWYRQAPGKERELVAAISQSAGSTYADSVKGRFTISRDNAKNTVYLQMNSLKPEDTAVYYFAARYRYPYYARYGYWGQGTQVTVSS | high polyreactivity
35 | QVQLVESGGGLVQAGGSLRLSCAASGFTFENYAMGWYRQAPGKEREFVAAISTRGTSTYYADSVKGRFTISRDNAKNTVYLQMNSLKPEDTAVYYCAARFYYWGQGTQVTVSS | high polyreactivity
36 | QVQLVESGGGLVQAGGSLRLSCAASGFTFERYAMGWYRQAPGKERELVAAIDWRGVNTYYADSVKGRFTISRDNAKNTVYLQMNSLKPEDTAVYYCAATRPATYASYDYWGQGTQLTVSS | high polyreactivity
37 | QVQLVESGGGLVQAGGSLRLSCAASGFTFEWYTMGWYRQAPGKERELVADISGDGSTYYADSVKGRFTISRDNAKNTVYLQMNSLKPEDTAVYYCAASFWGIAMGYWAQGTQVTVSS | high polyreactivity
38 | QVQLVESGGGLVQAGGSLRLSCAASGFTFFAYTMGWYRQAPWKERELVAAISWSGAGTYYADSVKGRFTISRDNAKNTVYLQMNSLKPEDTAVYYCNGVPYSGFDYWGQGTQVTVSS | high polyreactivity
39 | QVQLVESGGGLVQAGGSLRLSCAASGFTFFFYAMGWYRQAPGKEREFVAATSWIGGGTYYADSVKGRFTISRDNAKNTVYLLMNSLKPEDTAVYYCATDLASYAVGSKYGYWGQGTQVTVSS | low polyreactivity
40 | QVQLVESGGGLVQAGGSLRLSCAASGFTFFNYAMGWYRQAPGKERELVAAISRSGGGTYYADSVKGRFTISRDNAKNTDYLQMNSLKPEDTAVYYCNKRGTHGYTYRKFDYWGQGTQVTVSS | high polyreactivity
41 | QVQLVESGGGLVQAGGSLRLSCAASGFTFFPYAMGWYRQAPGKERELVATITRGGSTNYADSVKGRFTISRDNAKNSVYLQMNSLKPEDTAVYYCNIDKKTPTFDYWGQGTQVTVSS | low polyreactivity

Source: the nanobody polyreactivity screen of Harvey et al. (2022)
